Results from patent publication EP4785962A1, “ANTIBODY-DRUG CONJUGATE TARGETING TROP2, AND PREPARATION METHOD AND USE THEREFOR” (priority 2023, dated 2025).

How the values were obtained:
[1] = ADC in vivo stability assay in mice (serum ELISA for ADC and total antibody); design: species or system Balb/c mice; conditions: 10 mg/kg via the tail vein
Description: • 1. The antibody-drug conjugate was injected into Balb/c mice (Vital River) via the tail vein at a dose of 10 mg/kg, and blood was collected at 0.083 h, 0.5 h, 2 h, 6 h, 24 h, 48 h, 96 h, 168 h, 336 h, and 504 h after administration (FIG. 10A). The blood samples were left to stand at room temperature and centrifuged to collect serum, so as to test the stability of the drug in the mice. • 2. Antibody detection: TROP2 protein (ACRO, cat: TR2-H5223, lot: 2573-2316F1-1B9) was coated and incubated overnight at 4 °C (FIG. 10A). The coating protein solution was removed, and 300 µL of wash buffer (0.05% Tween 20) was added to each well for repeated washing 3 times. 200 µL of blocking solution (5% skim milk powder) was added to each well, and the plate was blocked at room temperature for 2 h. The blocking solution was discarded, and the plate was washed 3 times with 300 µL of wash buffer per well. The diluted standards, quality control samples, and mouse serum samples to be tested were added to the well plate and incubated at room temperature for 2 h. The sample solution was discarded, and 300 µL of wash buffer was added to each well for 3 times of repeated washing. Anti-hFc-HRP (BETHYL, cat:A80-104P, lot: 97) was diluted 20000-fold and added at 100 µL/well, and the plate was incubated at room temperature for 1 h. The liquid was removed, and 300 µL of wash buffer was added to each well for 6 times of repeated washing. 100 µL of TMB substrate (Solarbio, cat:PR1200, lot: 20230418) was added to each well, and the color development was performed at room temperature for 5-10 min in the dark. 50 µL of ELISA stop solution (Beijing Solarbio C1058 20190620) was added to each well, medium-speed shaking for 10 s, within 30 min, the OD values at 450 nm and 620 nm were read on a microplate reader (USA, Thermo Multiskan FC AS-A1-008). • 3. Antibody-drug conjugate ADC detection: an anti-payload antibody 18E7C9 (innovent, lot: 20220424) was coated and incubated at 4 °C overnight (FIG. 10A). The coating protein solution was discarded, and 300 µL of wash buffer (0.05% Tween 20) was added to each well for 3 repeated washes. 200 µL of blocking solution (5% skim milk powder) was added to each well, and the plate was blocked at room temperature for 2 h. The blocking solution was discarded, and the plate was washed 3 times with 300 µL of wash buffer per well. The diluted standards, quality control samples, and mouse serum samples to be tested were added to the well plate and incubated at room temperature for 2 h. The sample solution was discarded, and 300 µL of wash buffer was added to each well for 3 times of repeated washing. Biotinylated TROP2 protein (ACRO, cat: TR2-H82E5, lot:BV3055-91PF1-ZC) was added to the microplate and incubated at room temperature for 2 h. The liquid was removed, and 300 µL of wash buffer was added to each well for 3 times of repeated washing. SA-HRP (Biolegend, cat:405210, lot: B339457) was diluted 20,000-fold and added at 100 µL/well, and the plate was incubated at room temperature for 1 h. The liquid was removed, and 300 µL of wash buffer was added to each well for 6 times of repeated washing. 100 µL of TMB substrate (Solarbio, cat:PR1200, lot: 20230418) was added to each well, and the color development was performed at room temperature for 5-10 min in the dark. 50 µL of ELISA stop solution (Beijing Solarbio C1058 20190620) was added to each well, medium-speed shaking for 10 s, within 30 min, the OD values at 450 nm and 620 nm were read on a microplate reader (USA, Thermo Multiskan FC AS-A1-008).

[2] = test system: human hypopharyngeal carcinoma squamous cell line FaDu; experiment: In vitro cytotoxicity test, FaDu cells, 6 days; assay type: cell-based; conditions: 6 days of culture
Description: (§1) 10% FBS (SH30406.05, HYCLONE) was added to RPMI 1640 (22400-071, Gibco), and the mixture was mixed well to prepare a BxPC3 cell (ATCC) growth medium. BxPC3 or FaDu cells were adjusted to a concentration of 50000 cells/mL with a growth medium, seeded into a 96-well white-bottom plate (167008, NUNC) at 50 µL per well (2500 cells/well), and incubated overnight in an incubator at 37 °C. The antibody was diluted with growth medium and serially diluted 5-fold from 200 nM (2×) to obtain 9 gradients, with the final concentration being […]. The diluted antibody-drug conjugate or control was added at 50 µL/well, and the total volume was 100 µL. […] The cell pellet was fully lysed by shaking on a plate shaker for 5 min, and the luminescence signal was stabilized by standing at room temperature for 10 min. The culture plate was tested on a microplate reader (spectra MAX i3x, Molecular Divices), the […] were taken, and the cell viability was calculated. […]
(§2) The cell proliferation inhibition rate after 6 days of culture was calculated using the following formula.
(§3) Cell proliferation inhibition rate (%) = […], where a: the average value of experimental sample-added wells after 6 days of culture; b: the average value of control medium-added wells after 6 days of culture. The data were fitted by GraphPad Prism and the IC50 of the drug was calculated (Table 4).

[3] = test system: human pancreatic cancer cell line BxPC-3; experiment: In vitro cytotoxicity test, BxPC3 cells, 6 days; assay type: cell-based; conditions: BxPC3, 6 days of culture
Description: as §1, §2, §3

B1: hTINA1-DXd: control ADC: antibody hTINA1 conjugated with Linker-DXd, average DAR 4.3; TROP2-ADC from Daiichi Sankyo (conjugate, chains of the INN, looked up)
VH: QVQLVQSGAEVKKPGASVKVSCKASGYTFTTAGMQWVRQAPGQGLEWMGWINTHSGVPKYAEDFKGRVTISADTSTSTAYLQLSSLKSEDTAVYYCARSGFGSSYWYFDVWGQGTLVTVSS
VL: DIQMTQSPSSLSASVGDRVTITCKASQDVSTAVAWYQQKPGKAPKLLIYSASYRYTGVPSRFSGSGSGTDFTLTISSLQPEDFAVYYCQQHYITPLTFGQGTKLEIK
modifications: deruxtecan (Linker-DXd), DAR 4.3
notes: control ADC: antibody hTINA1 conjugated with Linker-DXd, average DAR 4.3; TROP2-ADC from Daiichi Sankyo
- AUC ([1]; Analysis Type ADC): 12053.60 µg·h/mL
- Cl_obs ([1]; Analysis Type ADC): 19.9 mL/day/kg
- T-half ([1]; Analysis Type ADC): 154.59 h
- AUC ([1]; Analysis Type Total-Ab): 35805.22 µg·h/mL
- Cl_obs ([1]; Analysis Type Total-Ab): 6.72 mL/day/kg
- T-half ([1]; Analysis Type Total-Ab): 374.37 h
- IC50 [2]: 1.5 nM
- IC50 [3]: 0.55 nM
